# Where two headings read alike, the source gives them in different places.
# T1: recombinant human 5T4 ECD protein fused to human Fc (human, UniProt Q13641 32-355)
# T1 construct: extracellular domain; Immunogen, ELISA antigen and Octet analyte; also called 5T4-ECD-hFc; 5T4-ECD-Fc; not shown: human Fc
# T1 sequence (looked up): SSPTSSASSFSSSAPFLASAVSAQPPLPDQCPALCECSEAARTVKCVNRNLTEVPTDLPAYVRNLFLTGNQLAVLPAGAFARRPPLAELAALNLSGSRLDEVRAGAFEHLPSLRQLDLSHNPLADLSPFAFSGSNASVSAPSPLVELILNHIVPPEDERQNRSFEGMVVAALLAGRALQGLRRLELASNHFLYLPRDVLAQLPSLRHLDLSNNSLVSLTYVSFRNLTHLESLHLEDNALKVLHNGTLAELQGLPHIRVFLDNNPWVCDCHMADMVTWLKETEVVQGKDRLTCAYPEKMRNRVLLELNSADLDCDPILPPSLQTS
# T2: cyno 5T4 on CHO cells (cyno, UniProt Q4R8Y9 35-420)
# T2 construct: whole, on cells; also called CHO over expressing cyno 5T4
# T2 sequence (looked up): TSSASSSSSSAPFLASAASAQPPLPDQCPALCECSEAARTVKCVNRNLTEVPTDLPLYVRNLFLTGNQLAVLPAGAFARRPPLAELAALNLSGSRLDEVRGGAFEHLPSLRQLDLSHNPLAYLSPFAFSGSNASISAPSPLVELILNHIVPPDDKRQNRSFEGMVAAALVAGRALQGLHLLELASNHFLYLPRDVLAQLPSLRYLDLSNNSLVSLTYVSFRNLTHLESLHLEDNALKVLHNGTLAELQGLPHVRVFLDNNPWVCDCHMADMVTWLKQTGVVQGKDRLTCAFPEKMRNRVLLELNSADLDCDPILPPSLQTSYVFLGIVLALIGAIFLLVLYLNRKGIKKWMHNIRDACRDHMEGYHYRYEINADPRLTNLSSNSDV
# T3: h5T4-His (cat #19845-H08H, Sino Biological) (human, UniProt Q13641 32-355)
# T3 construct: also called recombinant 5T4 protein; 5T4 recombinant antigen protein; not shown: His tag
# T3 sequence (looked up): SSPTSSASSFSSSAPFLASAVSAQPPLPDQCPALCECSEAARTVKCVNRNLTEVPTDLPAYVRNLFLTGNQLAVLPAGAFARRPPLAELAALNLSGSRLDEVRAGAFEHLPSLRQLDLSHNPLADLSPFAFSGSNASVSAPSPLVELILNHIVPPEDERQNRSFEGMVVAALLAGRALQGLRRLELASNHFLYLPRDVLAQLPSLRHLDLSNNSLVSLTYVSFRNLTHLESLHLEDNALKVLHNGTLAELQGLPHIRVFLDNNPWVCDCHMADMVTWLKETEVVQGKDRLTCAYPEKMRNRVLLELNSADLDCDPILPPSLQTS
# T4: human 5T4 on cells (human, UniProt Q13641 32-420)
# T4 construct: whole, on cells; also called CHO cells over expressing human 5T4; MCF-7 (endogenous 5T4)
# T4 sequence (looked up): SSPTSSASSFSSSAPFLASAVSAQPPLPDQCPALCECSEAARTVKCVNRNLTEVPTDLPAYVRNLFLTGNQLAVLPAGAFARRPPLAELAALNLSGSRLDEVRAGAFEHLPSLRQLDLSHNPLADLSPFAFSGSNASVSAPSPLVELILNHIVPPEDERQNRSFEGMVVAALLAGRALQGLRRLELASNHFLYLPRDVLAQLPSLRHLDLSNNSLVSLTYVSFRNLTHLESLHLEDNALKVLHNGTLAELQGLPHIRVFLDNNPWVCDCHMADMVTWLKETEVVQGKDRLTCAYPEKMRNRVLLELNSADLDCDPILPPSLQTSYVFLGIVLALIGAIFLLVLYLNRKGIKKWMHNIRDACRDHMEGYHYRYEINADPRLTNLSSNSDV
# Tests used:
# [1] = target: T1, recombinant human 5T4 ECD protein fused …; experiment: Octet, mAb on AMC sensor, 5T4-Fc as analyte
# Description: (§1) Binding Affinities by Octet Test. Briefly, mAb were analyzed by Octet RED 384 instrument, where human 5T4-ECD Fc antigen at 200 nM and 100 nM served as the analyte and the purified mAbs at 5 μg/ml served as the ligand, bound to AMC sensor (anti mouse Fc antibody) with immobilized phase of 180 s, association phase of 300 s, dissociation phase of 180 s.
# (§2) FIGS. 7A-7G present the Octet data determined the KD affinities of selected mAb.
# [2] = target: T1, recombinant human 5T4 ECD protein fused …; experiment: Octet, mAb on AMC sensor, 5T4-ECD Fc as analyte
# Description: as §1, §2
# [3] = target: T2, cyno 5T4 on CHO cells; experiment: FACS, CHO cells over expressing cyno 5T4
# [4] = target: T1, recombinant human 5T4 ECD protein fused …; experiment: ELISA, coated 5T4 antigen
# [5] = target: T3, h5T4-His (cat #19845-H08H, Sino …); experiment: ELISA on recombinant 5T4 protein; ELISA on recombinant 5T4 protein
# [6] = target: T4, human 5T4 on cells; experiment: FACS on MCF-7 cells endogenously expressing 5T4; FACS, MCF-7 endogenously expressing 5T4
# [7] = target: T1, recombinant human 5T4 ECD protein fused …; experiment: Octet (data not shown; antigen format not stated here)
# [8] = target: T2, cyno 5T4 on CHO cells; experiment: FACS on CHO over expressing cyno 5T4 (data not shown); FACS, CHO over expressing cyno 5T4
# [9] = target: T4, human 5T4 on cells; experiment: FACS on CHO over expressing human 5T4; FACS, CHO over expressing human 5T4
# [10] = target: T2, cyno 5T4 on CHO cells; experiment: FACS, CHO cells over expressing cyno 5T4; remark: listed apart in the source
# [11] = target: T2, cyno 5T4 on CHO cells; experiment: FACS, CHO cells over expressing cyno 5T4; remark: listed apart in the source
# [12] = target: T1, recombinant human 5T4 ECD protein fused …; experiment: ELISA, coated 5T4 antigen; remark: listed apart in the source
# [13] = target: T4, human 5T4 on cells; experiment: FACS, CHO cells over expressing human 5T4
# [14] = target: T1, recombinant human 5T4 ECD protein fused …; experiment: ELISA, coated 5T4 antigen; remark: listed apart in the source
# [15] = target: T4, human 5T4 on cells; experiment: FACS, CHO cells over expressing human 5T4; remark: listed apart in the source
# [16] = target: T1, recombinant human 5T4 ECD protein fused …; experiment: ELISA, coated 5T4 antigen; remark: listed apart in the source
binder,measurement,setting,value
"mAb005 (antibody, V domains shown, also called IM, 5T4 mouse hybridoma cl-5) VH: EVQLVESGGGLVQPKGSLQLSCAASGFTFNTYAMHWVRQAPGKGLEWVARIRSKSSNYATYYADSVKDRFTISRDDSQSMLYLQMNNLKTEDTAMYYCVRDGDYYYGSRPSYWYFDVWGTGTTVTVSS VL: DILLTQSPAILSVSPGERVSFSCRASQSIGTNIHWYQQRTNGSPRLLIKYASESISGIPSRFSGSGSGTDFTLSINNVESEDIADYYCQQTNTWPLTFGAGTKLDLK",koff,[1],0.00024 s⁻¹
same,kon,[1],89300 M⁻¹ s⁻¹
same,Kd,[2],2.69 nM
"mAb006 (antibody, V domains shown, also called IM, 5T4 mouse hybridoma cl-6) VH: EVQLVESGGGLVKPGGSLKLSCAASGFTFSNYVMSWVRQTPEKRLEWVATISDRGSYTYYPDYVKGRFTISRDNAKNNLYLQMSHLKSEDTAMYYCARASYYSNLGFAYWGQGTLVTVSA VL: not shown",binding result,[3],binds
same,koff,[1],0.00125 s⁻¹
same,kon,[1],220000 M⁻¹ s⁻¹
same,Kd,[2],5.67 nM
"mAb016 (antibody, V domains shown, also called mAb0016; IM, 5T4 mouse hybridoma cl-16) VH: AVQLQQSGPVRVKPGASVKMSCKASGYPFTDYYMNWVKQSHGRSLDWIGVFNPYNGDTRYTQKFKDKATLTIDKSSSTAYMELNSLTSEDSAVYYCARLRLLYDTSEYYVMDYWGQGTSVTVSS VL: ENVLTQSPAIMSASPGEKVTMTCSASSSVNYMHWYQQKSNTSPKLWIYDTSKLASGVPGRFSGSGSGNSYSLTISSMEAEDVATYFCFQGSGYPYTFGGGTKLEIK",EC50 (read off the curve),[4],~0.2 nM
same,koff,[1],3.48e-05 s⁻¹
same,kon,[1],150000 M⁻¹ s⁻¹
same,Kd,[2],0.232 nM
"mAb016-hIgG1 chimeric Ab (antibody, V domains shown, Mouse VH and VL of mAb016 cloned into human IgG1; also called mAb0016-IgG1) VH: AVQLQQSGPVRVKPGASVKMSCKASGYPFTDYYMNWVKQSHGRSLDWIGVFNPYNGDTRYTQKFKDKATLTIDKSSSTAYMELNSLTSEDSAVYYCARLRLLYDTSEYYVMDYWGQGTSVTVSS VL: ENVLTQSPAIMSASPGEKVTMTCSASSSVNYMHWYQQKSNTSPKLWIYDTSKLASGVPGRFSGSGSGNSYSLTISSMEAEDVATYFCFQGSGYPYTFGGGTKLEIK",EC50,[5],0.3 nM
same,EC50,[6],0.9 nM
same,Kd,[7],14.7 nM
same,EC50,[8],2.2 nM
same,EC50,[9],1.1 nM
"mAb018 (antibody, V domains shown, also called IM, 5T4 mouse hybridoma cl-18) VH: EVQLRQSGPVLVKPGASLKMSCKASGFTIADYYMTWVTQSHGQSLDWIGLINPYSGETTYNQKFKGKATLSVDKSSNTAYMDLNSLTSEDSAVYYCARWRLGYYAMDYWGRGTSVTVSS VL: ENVLTQSPAIMSASPGEKVTMTCSASSSVSYMHWYQQKSSTSPKVWIYDTSKLASGVPGRFSGSGSGNSYSLTISSMEAEDVATYYCFQGIGYPYTFGGGTKLEIK",EC50 (read off the curve),[4],~0.3 nM
same,binding result,[10],binds
same,koff,[1],6.97e-05 s⁻¹
same,kon,[1],259000 M⁻¹ s⁻¹
same,Kd,[2],0.269 nM
"mAb008 (antibody, V domains shown, also called IM, 5T4 mouse hybridoma cl-8) VH: QVQLQQSGAELMKPGASVKLACKATGYTFTAYWIEWVKQRPGHGLEWIGEILPGRGSTNSNEKFKGKATFTADTSSNTVYMQLSSLTTEDSAIFYCARGYRDFDYWGQGTTLTVSS VL: DIVMTQSQKFMSTTVGDRVSIICKASQNVGTAVAWYQQKPGQSPKVLIYSASNRYTGVPDRFTGSGSGTDFTLTISNMQSEDLADYFCQQYTSYPRTFGGGTKLEIK",EC50 (read off the curve),[11],~5 nM
same,EC50 (read off the curve),[12],~0.3 nM
same,EC50 (read off the curve),[13],~5 nM
same,koff,[1],3.87e-05 s⁻¹
same,kon,[1],185000 M⁻¹ s⁻¹
same,Kd,[2],0.209 nM
"mAb014 (antibody, V domains shown, also called IM, 5T4 mouse hybridoma cl-14) VH: QVQLQQSGGELMKPGASVKLSCKATGYKFTGYWIEWVKQRPGHGLEWIGEILPGRGSTNYNEKFKGKATFTADTSSNTVYMQLSSLTTEDSAIYYCARGGRDFDFWGQGSTLTVSS VL: DIQMTQTTSSLSASLGDRVTISCSASQGINSNLNWYQQKPDGTVKLLIYYTSSLHSGVPSRFSGSGSGTDYSLTISNLEPEDIATYYCQQYNKLPYTFGGGTKLEIK",EC50 (read off the curve),[14],~0.2 nM
same,binding result,[10],binds
"mAb010 (antibody, V domains shown, also called mAb10; IM, 5T4 mouse hybridoma cl-10) VH: QVQLRQSGAELMKPGASVKLSCKATGYTFTGYWIEWVKQRPGHGLEWIGEILPGRGSSNYNEKFKGKATLTADTSSNTVYMQLSSLTIEDSAIYYCARGGRDFDYWGQGTTLTVSS VL: DIQMTQITSSLSASLGDRVTIGCSASQGINNNLNWYQQKPDGTVKLLVYYTSSLHSGVPSRFSGSGSGTDYSLTISNLEPEDIATYYCQQFIKLPYTFGGGTKLEIK",EC50 (read off the curve),[11],~4 nM
same,EC50 (read off the curve),[12],~0.3 nM
same,EC50 (read off the curve),[13],~3 nM
same,koff,[1],9.53e-05 s⁻¹
same,kon,[1],206000 M⁻¹ s⁻¹
same,Kd,[2],0.463 nM
"mAb008-hIgG1 chimeric Ab (antibody, V domains shown, Mouse VH and VL of mAb008 cloned into human IgG1) VH: QVQLQQSGAELMKPGASVKLACKATGYTFTAYWIEWVKQRPGHGLEWIGEILPGRGSTNSNEKFKGKATFTADTSSNTVYMQLSSLTTEDSAIFYCARGYRDFDYWGQGTTLTVSS VL: DIVMTQSQKFMSTTVGDRVSIICKASQNVGTAVAWYQQKPGQSPKVLIYSASNRYTGVPDRFTGSGSGTDFTLTISNMQSEDLADYFCQQYTSYPRTFGGGTKLEIK",EC50,[5],0.4 nM
same,EC50,[6],4.4 nM
same,EC50,[8],5.7 nM
same,EC50,[9],5 nM
"mAb003 (antibody, V domains shown, also called IM, 5T4 mouse hybridoma cl-3) VH: QVQLQQSGAELMKPGASVKLSCKATGYTFTGYWIEWVKQRPGHGLEWIGEILPGRDSTNSNEKFKGKATFTADTSSNTVYMQLSSLTTEDSAIFYCARGYRDFDYWGQGTTLTVSS VL: DIVMTQSQKFMSTTVGDRVSIICKASQNVGTAVAWYQQKPGQSPKVLIYSASNRYTGVPDRFTGSGSGTDFTLTISNMQSEDLADYFCQQYSSYPRTFGGGTKLEIK",EC50 (read off the curve),[3],~5 nM
same,EC50 (read off the curve),[15],~4 nM
same,EC50 (read off the curve),[16],~0.4 nM
